Measured values from the supplement of paper PMC9170038.

How the values were obtained:
MS2 coat protein [1] = assay: apparent KD of MS2 coat protein, switch ON state; designed switch direction (-1 OFF switch, 1 ON switch): -1; higher = weaker reporter binding; settings: FMN input: 0 or 200 uM; Eterna round: R93 (includes R88 designs)
In short: (§1)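 Designed RNA switches were made by on-chip transcription from Illumina sequencing clusters and then titrated with SNAP-549-labelled MS2 coat protein. Twofold steps ran from 0.7 or 1.5 nM to 3 µM, each lasting 0.8–1.5 h early and 10–20 min late, in 100 mM Tris-HCl pH 7.5, 80 mM KCl, 4 mM MgCl2, without or with constant ligand. Apparent KD is the per-design median of normalised cluster binding-curve fits.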

MS2 coat protein [2] = assay: apparent KD of MS2 coat protein, switch OFF state (with FMN for OFF switches, without FMN for ON switches); designed switch direction (-1 OFF switch, 1 ON switch): -1; higher = weaker reporter binding; settings: FMN input: 0 or 200 uM; Eterna round: R93 (includes R88 designs)
In short: as §1

Sequence | apparent KD of MS2 coat protein (MS2 coat protein [1]) [nM] | apparent KD of MS2 coat protein (MS2 coat protein [2]) [nM]
AAAAAGGGAGGAUAUACAUGAGGAUCACCCAUGUGAAGGACGAAAAAGAGUCUAAAGGGUAGAAGGCCCAAAAA [65%, Moding Exclusion3-cac2, 11] | 52.5 | 43.4
AAAAAGGUAGGAUAUACAUGAGGAUCACCCAUGUAAAUAAAUGGAGAAAAAAACAAUUGUAGAAGGGCCAAAAA [Ex3 Malc#8] | 39.9 | 43.1
AAAAAGUCAGGAUAUACGAAAGUGCGAAAGCACAAAAAGAGACAUGAGGAUCACCCAUGUAGAAGGGACAAGAA [Married to this design, 61% 2] | 45 | 17.8
AAAAAGUCAGGAUAUGCAGAAAAAAAAACGAAAAAAAAACUGCAGAAGGGACAUGAGGAUCACCCAUGUUAAAA [Ex 4 May 14] | 30.8 | 29.8
AAAAAGUGAGGAUAUGGUAAAAAAAAAAAAAAAAAAAAAAUCCAGAAGGCACAUGAGGAUCACCCAUGUAAAAA [Jolly Cotton - Jieux - Exclusion 4] | 46.2 | 29.7
AAAAAGUGAGGAUAUUCGGAUAGGAAAACGAAAACCUAUCCGAAGAAGGCACAUGAGGAUCACCCAUGUAAAAA [67% Ecls-II - Early G segment 1] | 37 | 37.6
AAAAAGUUAGGAUAUACAUGAGGAUCACCCAUGUACAUAAAUGGAGAAAAAAACAGUAGUAGAAGGGACAAAAA [EX2 Malc#11] | 23.8 | 22.2
AAAAAUGGAGGAUAUACAUGAGGAUCACCCAUGUGAAACAAAACAAAACACAAAAAAAGUAGAAGGCCAAAAAA [Gilly Gone Silly 4 - Jieux - Exclusion 3] | 33.1 | 38.2
AAAAAUGGAGGAUAUACAUGAGGAUCACCCAUGUGUAAAAAAAAUUACACAAAAGAAAGUAGAAGGCCAUAAAA [Ex 3 Warm] | 59.7 | 102
AAAAAUGGAGGAUAUACAUGAGGAUCACCCAUGUGUAACUAUACUAAGCACAAACCACGUAGAAGGCCAAAAAA [Gilly Gone Silly 11 - Jieux - Exclusion 3] | 51.7 | 78.3
AAAAAUGGAGGAUAUACAUGAGGAUCACCCAUGUGUGACUAUACUAUGUGCUCUUCAGGUAGAAGGCCAAAAAA [Gilly Gone Silly 19 - Jieux - Exclusion 3] | 44.3 | 249
AAAAAUGGAGGAUAUACAUGAGGAUCACCCAUGUUAGAACAAAAAAAAGGGAAAGAAAGUAGAAGGCCAUAAAA [Ex 3 May 25] | 34.7 | 49.1
AAAACACAUGAGGAUCACCCAUGUGAGGAUAUCGUGCAGUAGACGAAAGUCUACUGCACGAGAAGGCACAAGGA [Tweaking Brourd] | 33 | 50.2
AAAACACAUGAGGAUCACCCAUGUGAGGAUAUGCGAAAAAAAAAAAAAAAAAAAAAACGCAGAAGGCACAUAAA [jn_teaneck] | 23.6 | 43.5
AAAACACAUGAGGAUCACCCAUGUGAGGAUAUGCUAUGGAAAUAAAAAAUAAAACAUAGCAGAAGGCGCAGGAA [Mat - Exclusion 1 - Eli mod - D47] | 25.2 | 29.1
AAAACGUCAGGAUAUACAGAAGAGAUCACAAAAAAAAAAAAACAUGAGGAUCACCCAUGUAGAAGGGACAAAAA [Ex2 Malc#2] | 111 | 115
AAAACUAGAGGAUAUACGAACAUGUCAAAAGACGUGAAGGGACAUGAGGAUCACCCAUGUAGAAGGCUAGAAAA [JL Stem Breaker 11] | 55.6 | 71.9
AAAAGCAGAGGAUAUACAUAAUUAUGACGAAAGUCAUAAAAACAUGAGGAUCACCCAUGUAGAAGGCUGCAAAA [MOD of Meechl's MS2 Ex2 (MS2 riboswitches - Exlclusion 2)] | 24.9 | 28.1
AAAAGGGCAGGAUAUGCGUACUCACGGAAAAACUGGAUGGUACAUGAGGAUCACCCAUGUAGAAGGGCUAAAAA [Dora Explored 17 - Jieux - Exclusion 2] | 57.5 | 40.9
AAAAGGUCAGGAUAUGCCCACCAGGAAAAAAAACCAGGUGGGCAGAAGGGACAUGAGGAUCACCCAUGUAAAAA [Excls4-I] | 59.6 | 107
AAAAGGUGAGGAUAUACGAAAAAAAAAAAAAAAAAAAAAAAGUAGAAGGCACAUGAGGAUCACCCAUGUAAAAA [LROPPY Exclusion 4 - v01_deltaG=2.54] | 31.3 | 41.3
AAAAUAAAAGGAUAUAAAAAUAAAAGUCAGGAUAUAGGAAACUAGAAGGGACAUGAGGAUCACCCAUGUAAAAU [Meechl Ex4 R2 m1] | 47.8 | 33.8

Sequence | apparent KD of MS2 coat protein (MS2 coat protein [1]) [nM] | apparent KD of MS2 coat protein (MS2 coat protein [2]) [nM]
AAAAUACAUGAGGAUCACCCAUGUGAGGAUAUGAGAAAGGGAAUAAAAUAACCCAAACUCAGAAGGCACAAAAA [Ex 1 May 26] | 35.9 | 45.9
AAACCACAUGAGGAUCACCCAUGUCAGGAUAUGCUAUGGAAAAAUAAAAUAAAACAUAGCAGAAGGGACAAAAA [Mat - Exclusion 1 - Eli mod - D34] | 31.1 | 52
AAACUACUAGGAUAUACAACGGUGUCCUAACUACUAAGAAAACAUGAGGAUCACCCAUGUAGAAGGAGUAAUAA [Cearused] | 35.8 | 78.2
AAACUGGUAGGAUAUGCUAGGGCGAUUAAUACGCCGAUAGUACAUGAGGAUCACCCAUGUAGAAGGGCCAGAAA [Mat - Exclusion 2 - JL mod - D65] | 30.8 | 23.6
AAAGGACAUGAGGAUCACCCAUGUGAGGAUAUCGGAAAAGGAAAAAAAAAAAAGAAGACGAGAAGGCACACCAA | 38.8 | 55.6
AAAGGACGAGGAUAUACAUGAGGAUCACCCAUGUAAAAAACAUAAUAAAAGAAUAUAUGUAGAAGGCGUCCAAA [Ruby 59] | 18.7 | 17.8
AAAGGAUCAGGAUAUGCGUGGAAAAAGUGUAUUCAAAAAAAACAUGAGGAUCACCCAUGUAGAAGGGAUCCAAA [Normal (20/19)] | 140 | 546
AAAUACUAAGGAUAUACAUGAGGAUCACCCAUGUACAAACCCGUGGAACGGAUCCUUAGUAGAAGGUGGACGAA [Onquerar] | 13.6 | 13.9
AAAUCAGUAGGAUAUACGAUUUGGUACUAGACCGAGGAACCACAUGAGGAUCACCCAUGUAGAAGGACUAGAUA [EX2 Malc#21] | 17.2 | 12.9
AAAUGACAUGAGGAUCACCCAUGUCAGGAUAUGACUUGAAAAAAAAAAAAAAAACAUGUCAGAAGGGACAUGGG [Design 50: Sub-opt FB] | 15.7 | 9.45
AAAUGACAUGAGGAUCACCCAUGUCAGGAUAUGACUUGAAAAAUAAAAUAAAAACAUGUCAGAAGGGACAUGGA [Design 51: Sub-opt GB] | 23.9 | 20.8
AAAUGACUAGGAUAUACAUGAGGAUCACCCAUGUGUUAAAAUAAAUACACAAAAGAAAGUAGAAGGAGUCAAAA [Ex 3 May 15] | 22.3 | 59.7
AAAUUGUCAGGAUAUCUUAGAACUGUCAAAGACAGGAGCUAAGAGAAGGGACAUGAGGAUCACCCAUGUAAAAC [May 90] | 64 | 88.5
AAAUUGUCAGGAUAUCUUAGAAUAGUCAAAGACUAGAGCUAAGAGAAGGGACAUGAGGAUCACCCAUGUAAAAC [May 91] | 61.8 | 56.6
AACAAACAUGAGGAUCACCCAUGUCAGGAUAUGCAAACAACAAACAACAAACAACAAAGCAGAAGGGACAACAA [e1-3] | 19.9 | 25.1
AACAAACAUGAGGAUCACCCAUGUCAGGAUAUGCAAACAACAAACAACAAACAACAAAGCAGAAGGGACGACAA [63%, Olong, 3] | 21.7 | 37.5
AACAAUACAGGAUAUACAUGAGGAUCACCCAUGUGAGAAUUAAGUGGCGUACCACAAGGUAGAAGGGUAAUGGA [Ruby 2] | 22.4 | 34.7
AACAGUACAGGAUAUACAUGAGGAUCACCCAUGUAAAAAUAAAAGGGAAACUCAAAAAGUAGAAGGGUACUGGA [Moding Maslow revisited (73) 13] | 117 | 78.6
AACAGUACAGGAUAUACAUGAGGAUCACCCAUGUAGGGAUAAAGUGGCGUACCACAAAGUAGAAGGGUACUGGA [Moding Maslow revisited (73) 4] | 30.6 | 142
AACAGUACAGGAUAUACAUGAGGAUCACCCAUGUGAAAAUUAAGUGGCGUACCACAAUGUAGAAGGGUACUGGA [Moding Maslow Revisited (73) 24] | 110 | 83.7
AACAGUACAGGAUAUACAUGAGGAUCACCCAUGUGAGAAUAAAGUGGCGUACCACAAAGUAGAAGGGUACUGGA [Mat - Exclusion 3 - JL mod - D20] | 26.7 | 148
AACAUGUAAGGAUAUAGAAGAAAAGAAAAGAAAGAAAAGAACUAGAAGGUACAUGAGGAUCACCCAUGUAAGAA [EteRNA is fun!] | 33.1 | 16.2
